# US20240043504A1 (published 2024)
# Substitutions are numbered along the chain they refer to.
# T1: MERS-CoV Spike Protein (ECD, aa 1-1297, His Tag) (Sino 40069-[change]) (MERS-CoV, UniProt K9N5Q8 18-1297)
# T1 sequence: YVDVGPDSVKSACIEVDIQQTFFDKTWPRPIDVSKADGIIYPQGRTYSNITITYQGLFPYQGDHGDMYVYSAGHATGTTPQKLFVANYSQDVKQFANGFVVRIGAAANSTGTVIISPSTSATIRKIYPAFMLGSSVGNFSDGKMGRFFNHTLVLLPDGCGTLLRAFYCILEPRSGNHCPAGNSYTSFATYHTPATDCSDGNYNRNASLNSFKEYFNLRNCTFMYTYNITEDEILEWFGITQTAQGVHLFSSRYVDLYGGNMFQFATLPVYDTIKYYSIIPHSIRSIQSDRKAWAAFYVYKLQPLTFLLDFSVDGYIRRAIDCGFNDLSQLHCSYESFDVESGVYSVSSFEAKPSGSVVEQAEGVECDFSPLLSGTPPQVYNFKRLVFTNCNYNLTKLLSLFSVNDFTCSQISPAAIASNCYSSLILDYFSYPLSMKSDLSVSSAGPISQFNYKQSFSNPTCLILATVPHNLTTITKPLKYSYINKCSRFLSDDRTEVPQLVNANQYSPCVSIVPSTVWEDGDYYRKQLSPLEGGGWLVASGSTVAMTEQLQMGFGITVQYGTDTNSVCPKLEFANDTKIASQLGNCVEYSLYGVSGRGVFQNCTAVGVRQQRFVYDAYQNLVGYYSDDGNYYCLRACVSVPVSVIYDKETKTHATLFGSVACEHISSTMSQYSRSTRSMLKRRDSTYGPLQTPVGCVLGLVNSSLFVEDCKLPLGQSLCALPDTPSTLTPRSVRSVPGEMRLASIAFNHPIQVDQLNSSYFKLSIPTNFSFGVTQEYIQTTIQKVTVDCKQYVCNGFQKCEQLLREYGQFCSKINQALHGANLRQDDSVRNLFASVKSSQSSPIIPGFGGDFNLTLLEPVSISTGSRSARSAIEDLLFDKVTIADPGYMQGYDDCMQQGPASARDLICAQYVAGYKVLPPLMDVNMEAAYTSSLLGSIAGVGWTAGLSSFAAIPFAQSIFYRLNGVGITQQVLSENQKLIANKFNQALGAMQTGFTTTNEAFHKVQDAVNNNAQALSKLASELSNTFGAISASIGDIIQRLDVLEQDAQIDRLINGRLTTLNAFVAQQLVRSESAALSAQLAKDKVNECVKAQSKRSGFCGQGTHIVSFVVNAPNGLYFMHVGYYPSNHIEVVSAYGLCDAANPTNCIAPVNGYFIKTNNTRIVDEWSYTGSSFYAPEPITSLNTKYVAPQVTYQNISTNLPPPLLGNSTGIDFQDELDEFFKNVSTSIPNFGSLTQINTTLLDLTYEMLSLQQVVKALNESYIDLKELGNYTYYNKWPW
# T2: MERS-CoV Spike Protein S2 (aa 726-1296, His Tag) (Sino 40070-[change]) (MERS-CoV, UniProt K9N5Q8 726-1296)
# T2 sequence: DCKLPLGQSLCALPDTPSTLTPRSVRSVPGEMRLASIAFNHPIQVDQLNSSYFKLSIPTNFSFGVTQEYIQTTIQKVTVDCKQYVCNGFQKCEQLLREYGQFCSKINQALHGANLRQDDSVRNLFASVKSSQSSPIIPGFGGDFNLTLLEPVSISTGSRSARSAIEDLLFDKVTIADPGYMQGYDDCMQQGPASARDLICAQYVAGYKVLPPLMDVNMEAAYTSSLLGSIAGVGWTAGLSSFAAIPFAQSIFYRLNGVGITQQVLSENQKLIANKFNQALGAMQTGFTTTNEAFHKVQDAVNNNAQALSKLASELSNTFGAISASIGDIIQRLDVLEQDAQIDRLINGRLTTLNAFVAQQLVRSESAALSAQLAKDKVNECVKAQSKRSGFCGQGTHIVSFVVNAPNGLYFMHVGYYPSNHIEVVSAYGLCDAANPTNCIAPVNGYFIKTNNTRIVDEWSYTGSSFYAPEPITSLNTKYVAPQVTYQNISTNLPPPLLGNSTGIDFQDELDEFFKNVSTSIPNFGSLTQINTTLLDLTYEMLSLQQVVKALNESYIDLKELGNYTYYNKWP
# T3: MERS-CoV (NCoV/Novel coronavirus) Spike Protein fragment (RBD, aa 367-606, His Tag) (Sino 40071-V08B1) (MERS-CoV, UniProt K9N5Q8 367-606)
# T3 sequence: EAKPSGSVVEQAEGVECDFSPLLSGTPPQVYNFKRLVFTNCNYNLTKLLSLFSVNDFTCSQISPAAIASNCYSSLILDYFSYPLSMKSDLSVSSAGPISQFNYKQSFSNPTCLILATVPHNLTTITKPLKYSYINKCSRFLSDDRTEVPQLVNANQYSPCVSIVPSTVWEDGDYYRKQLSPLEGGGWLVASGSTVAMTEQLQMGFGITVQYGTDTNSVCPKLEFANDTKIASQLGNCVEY
# T4: MERS-CoV (NCoV/Novel coronavirus) Spike Protein S1 Protein (aa 1-725, His Tag) (Sino 40069-V08B1) (MERS-CoV, UniProt K9N5Q8 18-725)
# T4 sequence: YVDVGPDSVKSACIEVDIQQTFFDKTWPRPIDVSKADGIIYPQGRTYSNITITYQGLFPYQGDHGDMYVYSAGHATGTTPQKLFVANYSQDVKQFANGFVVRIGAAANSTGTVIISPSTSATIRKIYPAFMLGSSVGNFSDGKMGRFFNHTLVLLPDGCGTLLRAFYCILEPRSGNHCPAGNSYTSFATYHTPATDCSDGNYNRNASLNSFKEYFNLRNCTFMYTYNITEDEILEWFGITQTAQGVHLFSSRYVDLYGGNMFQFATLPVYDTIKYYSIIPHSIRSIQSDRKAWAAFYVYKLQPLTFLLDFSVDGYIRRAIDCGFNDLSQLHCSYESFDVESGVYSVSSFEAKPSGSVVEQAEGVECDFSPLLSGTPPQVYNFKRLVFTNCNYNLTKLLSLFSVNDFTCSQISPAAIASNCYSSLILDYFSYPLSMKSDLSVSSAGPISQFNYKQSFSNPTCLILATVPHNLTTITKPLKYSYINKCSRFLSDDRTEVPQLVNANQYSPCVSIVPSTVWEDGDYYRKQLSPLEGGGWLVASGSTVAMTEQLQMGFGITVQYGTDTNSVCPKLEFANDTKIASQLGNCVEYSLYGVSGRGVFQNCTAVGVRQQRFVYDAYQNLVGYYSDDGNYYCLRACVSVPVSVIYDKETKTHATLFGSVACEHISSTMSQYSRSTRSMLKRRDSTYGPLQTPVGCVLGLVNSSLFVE
# B1: mAb10933 (antibody, V domains shown)
# VH: QVQLVESGGGLVKPGGSLRLSCAASGFTFSDYYMSWIRQAPGKGLEWVSYITYSGSTIYYADSVKGRFTISRDNAKSSLYLQMNSLRAEDTAVYYCARDRGTTMVPFDYWGQGTLVTVSS
# VL: DIQMTQSPSSLSASVGDRVTITCQASQDITNYLNWYQQKPGKAPKLLIYAASNLETGVPSRFSGSGSGTDFTFTISGLQPEDIATYYCQQYDNLPLTFGGGTKVEIKR
# B2: mAb10938 (antibody, V domains shown)
# VH: EVQLVESGGGLVQPGGSLRLSCAVSGFTVSSNYMSWVRQAPGKGLEWVSLIYSGGSTFYADSVKGRFTISRHNSKNTLYLQMNSLRAEDTAVYYCAREGGYSYDYNYWGQGTLVTVSS
# VL: B1 VL with T30R, A50D, S65I, G77S, L96I, G100Q, K103R, V104L
# B3: mAb10954 (antibody, V domains shown)
# VH: EVQLVESGGGLVQPGGSLRLSCAASGITVSSNYMSWVRQAPGKGLEWVSLIYSGGSTYYADSVKGRFTISRDNSKNTLYLQMNSLRVEDTAVYYCARDHGMAAAGYNYWGQGTLVTVSS
# VL: B1 VL with T30N, N31K, A50D, S76N, G77S, I83F, Y87F, L96P, T97A, G100Q
# B4: mAb10967 (antibody, V domains shown)
# VH: EVQLVESGGGLVQPGGSLRLSCAASGFTVSSNYMSWVRQAPGKGLEWVSVIYPGGSTFYADSVKGRFTISRDNSKNTLYLQMNSLRAEDTAVYYCARDQRDFAWGQGTLVTVSS
# VL: B1 VL with T30S, A50D, L96P, G100Q, K103R, V104L
# B5: mAb10965 (antibody, V domains shown)
# VH: EVQLVESGGGLIQPGGSLRLSCAASVFTVSYNYMSWVRQAPGKGLEWVSVIYSGGSTYYADSVKGRFTISRDNSKNTLYLQMNSLRAEDTAVYYCARALPGWGGSFEYFDYWGQGTLVTVSS
# VL: not shown
# B6: mAb10989 (antibody, V domains shown)
# VH: QVQLVQSGAEVKKPGASVKVSCKASGYIFTGYYMHWVRQAPGQGLEWMGWINPNSGGANYAQKFQGRVTLTRDTSITTVYMELSRLRFDDTAVYYCARGSRYDWNQNNWFDPWGQGTLVTVSS
# VL: QSALTQPASVSGSPGQSITISCTGTSSDVGTYNYVSWYQQHPGKAPKLMIFDVSNRPSGVSDRFSGSKSGNTASLTISGLQAEDEADYYCSSFTTSSTVVFGGGTKLTVLG
# B7: mAb10984 (antibody, V domains shown)
# VH: EVQLVESGGGLVQPGGSLRLSCAASGLTVNRNYMSWVRQAPGKGLEWVSLIYSGGSTYYADSVKGRFTISRDNSKNTLYLQMNSLRLEDTAVYYCARGELGIPYGMDVWGQGTTVTVSS
# VL: QSVLTQPPSVSAAPGQKVTISCSGSSSNIGNNYVSWYQQLPGTAPKLLIYDNNKRPSGIPDRFSGSKSGTSATLGITGLQTGDEADYYCGTWDSSLSAGVFGGGTKLTVLG
# B8: mAb10956 (antibody, V domains shown)
# VH: EVQLVESGGGLVQPGGSLRLSCAASGLTVSSNYMSWVRQAPGKGLEWVSVIYSGGSTFYADSVKGRFTISRDNSKNTLYLQMNSLRAEDTAVYYCARDLIKYGMDVWGQGTTVTVSS
# VL: not shown
# B9: mAb10957 (antibody, V domains shown)
# VH: B8 VH with L27V, Y79F, A87I, I100G, K101P
# VL: DIQLTQSPSFLSASVGDRVTITCRASQGISSYLAWYQQKPGKAPKLLIYAASTLQSGVPSRFSGSGSGTQFILTISSLQPEDFATYYCQQLNSYPGFTFGPGTKVDIKR
# B10: mAb10966 (antibody, V domains shown)
# VH: EVQLVESGGGLVQPGGSLRLSCAASGLTVSSNYMSWVRQAPGKGLEWVSVIYSGGSTFYADSVKGRFTISRDNSKNTLYLQMNSLRPEDTAVYYCAREGRIAATGYGMDVWGQGTTVTVSS
# VL: not shown
# Tests used:
# [1] = target: full-length SARS-CoV-2 spike protein (amino acids M1-T1273 of accession number YP_009724390.1) on Ju (SARS-CoV-2, UniProt P0DTC2 14-1273); assay: cell-based or functional assay
# [2] = target: SARS-CoV-2 Spike Protein (RBD)(R319-F541).mFc (SARS-CoV-2); assay: Luminex, supernatant
# [3] = target: SARS-CoV-2 Spike Protein (RBD)(R319-F541).hFc (SARS-CoV-2); assay: Luminex, supernatant
# [4] = target: Human SARS Coronavirus Spike S1 Subunit Protein (His Tag) (Sino 40150-V08B1) (Human SARS Coronavirus, UniProt P59594 14-667); assay: Luminex, supernatant
# [5] = target: T1, MERS-CoV Spike Protein (ECD, aa 1-1297, …); assay: Luminex, supernatant
# [6] = target: T2, MERS-CoV Spike Protein S2 (aa 726-1296, …); assay: Luminex, supernatant
# [7] = target: T3, MERS-CoV (NCoV/Novel coronavirus) Spike …; assay: Luminex, supernatant
# [8] = target: T4, MERS-CoV (NCoV/Novel coronavirus) Spike …; assay: Luminex, supernatant
# [9] = target: Human SARS Coronavirus Spike S1 Subunit Protein (His Tag) (Sino 40150-V08B1) (Human SARS Coronavirus, UniProt P59594 14-667); assay: Luminex bead binding, supernatant
binder,measurement,setting,value
B1,"ADCP EC50 [M], Jurkat/hCD20/SARS-CoV-2 Spike cells",[1],5.79e-12 M
same,"ADCP Max (% ADCP), Jurkat/hCD20/SARS-CoV-2 Spike cells",[1],53.4%
B2,MFI,[2],30500 MFI
same,MFI,[3],29600 MFI
same,MFI,[4],19 MFI
same,MFI,[5],16 MFI
same,MFI,[6],19 MFI
same,MFI,[7],25 MFI
same,MFI,[8],20 MFI
B3,Binding signal (MFI),[9],15 MFI
B4,Binding signal (MFI),[9],21 MFI
B5,Binding signal (MFI),[9],16 MFI
B6,Binding signal (MFI),[9],21 MFI
B7,MFI,[2],28400 MFI
same,MFI,[3],28400 MFI
same,MFI,[4],22 MFI
same,MFI,[5],21 MFI
same,MFI,[6],25 MFI
same,MFI,[7],29 MFI
same,MFI,[8],20 MFI
B8,Binding signal (MFI),[9],16 MFI
B9,Binding signal (MFI),[9],16 MFI
B10,Binding signal (MFI),[9],20 MFI
